This is an account of results in paper PMC12339401 (Nature Cell Biology, 2025).

Details in all cases: both partners purified
The target of one experiment is T1, mCherry-WIPI3 (UniProt Q5MNZ6 1-344).
T1 construct: 6xHis-TEV-mCherry tag; also called mCherry-tagged WIPI3; source: E. coli Rosetta pLysS, purified; not shown: mCherry, N-terminal, kept
As to the kind of experiment: microscopy-based bead assay; GFP-tagged bait on GFP-trap agarose beads, mCherry-tagged prey in solution, confocal imaging.

In the next experiment the target is GST-WIPI3 (UniProt Q5MNZ6 1-344). The experiment is described as follows: microscopy-based bead assay; GST-tagged bait on Glutathione Sepharose 4B beads, GFP- or mCherry-tagged prey in solution, confocal imaging.
The target in the next experiment is T2, mCherry-tagged WIPI1 (UniProt Q5MNZ9 1-446).
T2 construct: WIPI1; called purified WIPI1-4 in the results
T2 sequence (looked up): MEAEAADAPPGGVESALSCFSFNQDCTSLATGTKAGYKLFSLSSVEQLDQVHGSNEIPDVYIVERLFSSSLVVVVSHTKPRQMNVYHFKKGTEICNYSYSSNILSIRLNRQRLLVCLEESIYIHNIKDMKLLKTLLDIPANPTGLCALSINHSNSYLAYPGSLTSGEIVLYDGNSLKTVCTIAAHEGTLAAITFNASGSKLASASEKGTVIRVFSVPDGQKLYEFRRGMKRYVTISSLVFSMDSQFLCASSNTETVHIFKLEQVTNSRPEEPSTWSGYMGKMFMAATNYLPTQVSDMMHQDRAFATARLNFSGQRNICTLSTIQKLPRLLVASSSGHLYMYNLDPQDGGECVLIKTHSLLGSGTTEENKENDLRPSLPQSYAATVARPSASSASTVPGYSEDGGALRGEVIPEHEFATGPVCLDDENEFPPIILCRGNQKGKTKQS
Described as above.

B1: GFP-tagged ATG13 IDR Δ191–205 (205–517 aa) (domain or fragment, UniProt O75143 205-517, looked up)
chain: PPIMGIIIDHFVDRPYPSSSPMHPCNYRTAGEDTGVIYPSVEDSQEVCTTSFSTSPPSQLSSSRLSYQPAALGVGSADLAYPVVFAAGLNATHPHQLMVPGKEGGVPLAPNQPVHGTQADQERLATCTPSDRTHCAATPSSSEDTETVSNSSEGRASPHDVLETIFVRKVGAFVNKPINQVTLTSLDIPFAMFAPKNLELEDTDPMVNPPDSPETESPLQGSLHSDGSSGGSSGNTHDDFVMIDFKPAFSKDDILPMDLGTFYREFQNPPQLSSLSIDIGAQSMAEDLDSLPEKLAVHEKNVREFDAFVETLQ
notes: Addgene number by the order of printing; source: E. coli Rosetta pLysS, purified; not shown: EGFP, N-terminal, kept
As to B1, the binding result in the experiment with mCherry-WIPI3 was “binds”.

B2: mCherry-tagged ATG13 IDR (191–517 aa) (domain or fragment, UniProt O75143 191-517, looked up)
chain: INLAFMSTRQFERTPPIMGIIIDHFVDRPYPSSSPMHPCNYRTAGEDTGVIYPSVEDSQEVCTTSFSTSPPSQLSSSRLSYQPAALGVGSADLAYPVVFAAGLNATHPHQLMVPGKEGGVPLAPNQPVHGTQADQERLATCTPSDRTHCAATPSSSEDTETVSNSSEGRASPHDVLETIFVRKVGAFVNKPINQVTLTSLDIPFAMFAPKNLELEDTDPMVNPPDSPETESPLQGSLHSDGSSGGSSGNTHDDFVMIDFKPAFSKDDILPMDLGTFYREFQNPPQLSSLSIDIGAQSMAEDLDSLPEKLAVHEKNVREFDAFVETLQ
notes: also called mCh-IDR; source: E. coli Rosetta pLysS, purified; not shown: mCherry, N-terminal, kept
With B2, the binding result in the experiment with GST-WIPI3 is reported as “binds”.

B3: GFP-tagged ATG13 IDR (191–517 aa) (domain or fragment, UniProt O75143 191-517, looked up)
chain: B2 chain
notes: also called full IDR; full-length IDR; source: E. coli Rosetta pLysS, purified; not shown: EGFP, N-terminal, kept
For B3, in the experiment with mCherry-WIPI3, the binding result is listed as “binds”.

B4: NIX(1–182)-GST (domain or fragment)
chain: not shown
notes: NIX (BNIP3L), human, cytosol-exposed domain, residues 1-182; transmembrane domain replaced by GST; also called NIX-GST; GST-tagged NIX; source: E. coli Rosetta pLysS, purified; not shown: GST, C-terminal, kept
As for B4, the binding result with mCherry-tagged WIPI1 is recorded as “binds”.

B5: GFP-tagged ATG13 (191–230 aa) (peptide, UniProt O75143 191-230, looked up)
chain: INLAFMSTRQFERTPPIMGIIIDHFVDRPYPSSSPMHPCN
notes: as for B1
For the molecule B5, the binding result with mCherry-WIPI3 is “binds”.

B6: GFP-tagged ATG13 (206–230 aa) (peptide, UniProt O75143 206-230, looked up)
chain: PIMGIIIDHFVDRPYPSSSPMHPCN
notes: ATG13, residues 206-230; Addgene number by the order of printing; also called ATG13 IDR fragment residues 206–230; source: E. coli Rosetta pLysS, purified; not shown: EGFP, N-terminal, kept
For the molecule B6, in the experiment with mCherry-WIPI3, the binding result is “binds”.
